The supplement of paper PMC9170038

System: MS2 coat protein
Assay: apparent KD of MS2 coat protein; designed switch direction (-1 OFF switch, 1 ON switch): 1; higher = weaker reporter binding
Outline: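 The reported apparent KD is a per-design median over clusters, from curve fits of normalised cluster fluorescence. Protein titrations used SNAP-549-labelled MS2 coat protein, doubled from 0.7 or 1.5 nM to 3 µM, in Tris-HCl pH 7.5 buffer with KCl, MgCl2, BSA, DTT, tRNA and Tween-20, with no input, 200 uM small-molecule ligand, or an oligonucleotide input. The RNA switches were transcribed on Illumina chips by stalled E. coli RNA polymerase.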

[1] = input ligand: microRNA oligo, concentration not stated
[2] = Eterna round: R95, input ligand: FMN 200 uM
[3] = Eterna round: R95, input ligand: microRNA oligo, concentration not stated
[4] = Eterna round: R95, input ligand: none

Sequence	apparent KD of MS2 coat protein (input ligand: FMN 200 uM) [nM]	apparent KD of MS2 coat protein [1] [nM]	apparent KD of MS2 coat protein (input ligand: none) [nM]	apparent KD of MS2 coat protein [2] [nM]	apparent KD of MS2 coat protein [3] [nM]	apparent KD of MS2 coat protein [4] [nM]
ACACUCCGUGGAGGAUAUGGGCCUGCCCGGGAUACCGGGCCUAACACAUGAGGAUCACCCAUGUCCCAGAAGGCCGCUGGAGCC [Enenala] (Eterna round: R96, puzzle: Same State NG 2)	26.2	55.7	120			
ACAUGAGAACGAGGAUAUUUUGUACCUACAUGUGACAUGAGGAUCACCCAUGUGGUAAGUAUGAGAAAGAAGGCGUAGAUAUGU [Equivalence 14 - Jieux - Same State NG 2] (Eterna round: R96, puzzle: Same State NG 2)	21.9	30.6	29			
ACAUGAGACCAAGGAUAUUUUGUACCUACAUGUGACAUGAGGAUCACCCAUGUGGUAAGUAUGAGAAAGAAGGUGGAGAUAUGU [Equivalence 22 - Jieux - Same State NG 2] (Eterna round: R96, puzzle: Same State NG 2)	22.8	22.5	37			
ACAUGAGACGGAGGAUAUCUUGUACCUACAUGUGACAUGAGGAUCACCCAUGUGGUAAGUAUGAUAGAGAAGGCCGAGAUAUGU [Equivalance 57 - Jieux - Same State NG 2] (Eterna round: R96, puzzle: Same State NG 2)	16.1	15	25.4			
ACAUGAGACUGAGGAUAUGUUGUACCUACAUGUGACAUGAGGAUCACCCAUGUGGUAAGUAUGAUACAGAAGGCAGAGAUAUGU [Equivalance 63 - Jieux - Same State NG 2] (Eterna round: R96, puzzle: Same State NG 2)	14.2	14.5	22.1			
ACAUGAGAUCUAGGAUAUAUUGUACCUACAUGUGACAUGAGGAUCACCCAUGUGGUAAGUAUGACAUAGAAGGAGAAGAUAUGU [Equivalance 95 - Jieux - Same State NG 2] (Eterna round: R96, puzzle: Same State NG 2)		53.9				
ACAUGAGAUGGAGGAUAUGUUGUACCUACAUGUGACAUGAGGAUCACCCAUGUGGUAAGUAUGAUACAGAAGGCCAAGAUAUGU [Equivalance 59 - Jieux - Same State NG 2] (Eterna round: R96, puzzle: Same State NG 2)	16.5	15.8	27.2			
ACAUGAGAUUGAGGAUAUAUUGUACCUACAUGUGACAUGAGGAUCACCCAUGUGGUAAGUAUGACAUAGAAGGCAGAGAUAUGU [Equivalance 84 - Jieux - Same State NG 2] (Eterna round: R96, puzzle: Same State NG 2)	67.7	107	75.3			
ACAUUUAGCUCUUGCACAUGAGGAUCACCCAUGUUCAGUUCACAGGAUAUCUAGUCAAACGGAUCGGAGAAGGGUGGCAGGAGC [Erquzaa] (Eterna round: R96, puzzle: Same State NG 3)	86.3	185	294			
ACCCAAAGUAUAUGGGAACAAGCUUUUUAACAUGAGGAUCACCCAUGUACUCGUCUUGUAAGCAGUCGAAAGACUGC [Sensor 100 - 1] (puzzle: Sensor for hsa-mir-208a)				312	17.4	368
ACGCAGCUGGGUGAGGAUAUCGGUGGUAAAACAUGAGGAUCACCCAUGUCCGAAGCUCGGACCUCCGAGAAGGCGCCCGGCUGCG [Soinraesar Omei Mod 1] (puzzle: Same State 2)				5.47	5.25	5.11
ACGUGGACGAAAGUCCACGAAUAAGACGAACAUGAGGAUCACCCAUGUGAGGCGAGCUUUUUGUUCGUCUUAUAAAA [Mat - Sensor - Mod - D116] (Eterna round: R96, puzzle: Sensor for hsa-mir-208a)	73.1	32.1	22.6			
ACUCUCACAGUAGGAUAUGUAGGAUAUGCCUACAUGAGGAUCACCCAUGUAAACAUGGCAGAAGGACAGAAGGACUUACAUUGG [pwkr ssNG2 2FMN + 1F5.2] (Eterna round: R96, puzzle: Same State NG 2)	31.7	197	408			
ACUUGCCGCACAGGAUAUGGGUGCCUGUACAUGAGGAUCACCCAUGUUAAGGGACGGAUUACGAACCAGAAGGGUGAGGCGGGC [Tigeti] (Eterna round: R96, puzzle: Same State NG 2)	124	418	750			
AGAAGACAUGAGGAUCACCCAUGUACAUAAUGAGGAGAAUGGGAGGAUAUGUAGAGAGAGAGGGAGCAGAAGGUCCAGUAUGAA [Default title] (Eterna round: R96, puzzle: Same State NG 3)	98.9	99.2	148			
AGACUACAACCUCGAACAUGAGGAUCACCCAUGUAAAGAUCCAAGGAUAUGGACAGGCCGAGCUACCAGAAGGUGGAAAGAGCC [Eternabot solution 7] (Eterna round: R96, puzzle: Same State NG 3)	40.9	38.4	69.8			
AGAGAACAUGAGGAUCACCCAUGUGGGAGAGGCAUAGGAUAUAGAGGAGAGAGCGAGGAACUAGAAGGAUGAUGGA [JR_SS1_Sub080] (puzzle: Same State 1)				47.3	70.7	91.3
AGAGGAGGAGCAGGAUAUUCGAAGAAGAACGUGGAAGAAGGGUUCAUGCGAUGACAUGAGGAUCACCCAUGUACCGCGCGAGGA [AK SSNG1-V2-11] (Eterna round: R96, puzzle: Same State NG 1)	50	42.9	67.6			
AGAUCAUGACGAGGAUAUGGUACAUGAGGAUCACCCAUGUAUGUACCACGACGGAAACGUCGAAUCCAGAAGGCGUCGUGAUCA [Mat - Same State NG 2 - JL mod - D23] (Eterna round: R96, puzzle: Same State NG 2)	47.5	100	127			
AGAUCAUGACGAGGAUAUGGUACAUGAGGAUCACCCAUGUAUGUACCAUAACGCGUACGACGAAACCAGAAGGCGUCGUGAUCA [Mat - Same State NG 2 - JL mod - D41] (Eterna round: R96, puzzle: Same State NG 2)	9.06	12.2	20.7			
AGAUGGUGUGGAAAGGAUAUACUGUUGAGGACAUGAGGAUCACCCAUGUGGUAGAGGAGGUAAGGGUAGAAGGUUCGGGAUUGGU [JR_SS@_Sub020] (puzzle: Same State 2)				29.9	32.3	41.6
AGAUGUUAAUUAGGAUAUGGUCACAUGAGGAUCACCCAUGUAACGAAGAUACGAUGUGGUCAAGACUAGAAGGGAUCGCUAACA [SameState NG2 #73] (Eterna round: R96, puzzle: Same State NG 2)	40.5	47.4	55.3			
